Assay results: publication PMC10806857
Like-named read-outs stand apart in the source and are kept apart here.

Legend:
Experiment in all cases: EMSA
[1] = target: STK19 3KA (Homo sapiens, UniProt P49842 1-254, K186A;K190A;K201A)
[2] = target: STK19 25-C (Homo sapiens, UniProt P49842 25-254)
[3] = target: T1, STK19 (TWH19) WT full-length (Homo sapiens, UniProt P49842 1-254)
[4] = target: T1, STK19 (TWH19) WT full-length; remark: listed apart in the source
[5] = target: T1, STK19 (TWH19) WT full-length; remark: listed apart in the source

T1 sequence (P49842 whole entry): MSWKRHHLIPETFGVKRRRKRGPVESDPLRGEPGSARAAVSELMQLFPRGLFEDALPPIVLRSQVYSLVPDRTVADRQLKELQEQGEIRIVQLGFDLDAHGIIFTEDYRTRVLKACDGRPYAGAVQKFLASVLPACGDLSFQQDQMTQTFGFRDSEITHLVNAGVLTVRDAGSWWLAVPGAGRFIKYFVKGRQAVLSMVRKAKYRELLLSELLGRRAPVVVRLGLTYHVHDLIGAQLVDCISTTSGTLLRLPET
STK19 3KA, sequence (P49842 whole entry K186A/K190A/K201A): as the sequence (P49842 whole entry) above, with K186A, K190A, K201A counted along it
STK19 25-C, sequence (P49842 25-254): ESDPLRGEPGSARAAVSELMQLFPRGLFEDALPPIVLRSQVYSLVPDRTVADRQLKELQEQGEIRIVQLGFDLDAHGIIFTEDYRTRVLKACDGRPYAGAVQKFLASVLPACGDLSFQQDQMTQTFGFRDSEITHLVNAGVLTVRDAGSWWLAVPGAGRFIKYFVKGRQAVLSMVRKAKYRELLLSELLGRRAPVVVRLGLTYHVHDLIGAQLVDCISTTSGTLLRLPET

B1: DNA1 (dsDNA)
DNA 1: CTGTACTTCCAGGGAATGGAAAGCGACCCTCTGCC
DNA 2: GGCAGAGGGTCGCTTTCCATTCCCTGGAAGTACAG
[1]
  binding result: no binding
[2]
  Kd: 3.8 µM

B2: DNA1 UVB-irradiated (dsDNA)
DNA 1: CTGTACTTCCAGGGAATGGAAAGCGACCCTCTGCC
DNA 2: GGCAGAGGGTCGCTTTCCATTCCCTGGAAGTACAG
modifications: UVB irradiated, lesions undefined
[3]
  binding result: binds

B3: RNA-30 bp-AT (dsRNA)
RNA 1: AAAAAAAAAAAAAAAAAAAAAAAAAAAAAA
RNA 2: UUUUUUUUUUUUUUUUUUUUUUUUUUUUUU
[4]
  binding result: binds

B4: DNA-30 bp-AT (dsDNA)
DNA 1: AAAAAAAAAAAAAAAAAAAAAAAAAAAAAA
DNA 2: TTTTTTTTTTTTTTTTTTTTTTTTTTTTTT
[5]
  binding result: binds
